Test [1] has as its target CRL5^Ozz, reconstituted five-component complex (Ozz–EloBC + Cul5–Rbx1) (human) (UniProt Q9BR09). Description: SEC; purified Ozz–EloBC and Cul5–Rbx1 mixed 1:1; Superose 6 10/300GL, 50 mM Tris pH 7.6, 150 mM NaCl, 0.3 ml/min; fractions on SDS gels stained with SYPRO Ruby.
The target is the same in test [2]. Briefly: co-sedimentation; 15–45% glycerol gradient ultracentrifugation with micro-fractionation; 20 mM Tris–HCl pH 7.6, 150 mM NaCl; 55,000 r.p.m., 8 h (also 12 h), 4 °C; fractions on SDS gels stained with SYPRO Ruby, densitometry.
For test [3] the target is unchanged. Description: AUC; sedimentation velocity, 50,000 rpm, 20 °C, interference optics; 10 mM sodium phosphate, 1.8 mM potassium phosphate pH 7.2, 137 mM NaCl, 0.27 mM KCl; c(s) and two-dimensional c(s,f/f0) analysis of the same data; co-purified subcomplexes alone (Ozz–EloBC 0.35 or 1.00 mg/ml, Cul5–Rbx1 0.21 mg/ml) and their 1:1 mixture (0.75 mg/ml).
Test [4] has as its target Ozz–EloBC subcomplex (human) (UniProt Q9BR09). Described as above.
Test [5] has the same target. Description: AUC; sedimentation velocity, isotherm of signal-weighted-average s (3 to 7 S) of Ozz–EloBC at 1.8 to 13.3 μM; reversible monomer–dimer self-association model (dimer to monomers of the 1:1:1 complex), SEDPHAT; same buffer, 20 °C.

Chain of Cul5–Rbx1 subcomplex (Q93034 whole entry): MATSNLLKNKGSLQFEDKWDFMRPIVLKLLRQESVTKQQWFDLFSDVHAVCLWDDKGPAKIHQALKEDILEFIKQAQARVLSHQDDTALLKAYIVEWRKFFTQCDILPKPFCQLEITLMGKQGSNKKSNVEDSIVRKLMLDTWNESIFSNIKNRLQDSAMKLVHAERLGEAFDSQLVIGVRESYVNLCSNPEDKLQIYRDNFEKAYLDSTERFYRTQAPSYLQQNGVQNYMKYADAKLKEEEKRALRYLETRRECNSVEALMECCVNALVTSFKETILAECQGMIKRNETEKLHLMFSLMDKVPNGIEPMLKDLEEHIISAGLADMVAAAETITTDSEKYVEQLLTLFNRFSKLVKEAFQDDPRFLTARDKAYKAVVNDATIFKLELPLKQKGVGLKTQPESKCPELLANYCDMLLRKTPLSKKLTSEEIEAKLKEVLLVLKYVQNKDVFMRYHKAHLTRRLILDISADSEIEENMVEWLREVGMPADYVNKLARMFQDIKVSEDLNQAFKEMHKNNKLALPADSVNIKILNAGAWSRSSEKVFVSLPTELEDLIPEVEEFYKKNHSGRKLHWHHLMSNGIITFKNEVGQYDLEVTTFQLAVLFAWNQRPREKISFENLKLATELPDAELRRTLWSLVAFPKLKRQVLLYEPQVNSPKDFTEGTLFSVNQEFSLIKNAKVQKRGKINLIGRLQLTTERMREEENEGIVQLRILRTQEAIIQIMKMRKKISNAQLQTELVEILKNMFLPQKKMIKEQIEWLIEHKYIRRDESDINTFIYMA
Chain of Cul5–Rbx1 subcomplex (P62877 whole entry): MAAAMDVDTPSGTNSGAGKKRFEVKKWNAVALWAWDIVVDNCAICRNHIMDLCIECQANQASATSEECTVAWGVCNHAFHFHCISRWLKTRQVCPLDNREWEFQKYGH

Take “CRL5^Ozz, reconstituted five-component complex (Ozz–EloBC + Cul5–Rbx1) (from UniProt Q9BR09 1-285; Q15370 1-118; Q15369 1-112; Q93034 1-780; P62877 1-108)”: the stoichiometry N in test [1], in test [2] and in test [3] was 2 in each case. Moreover, in test [3], the percent of total protein in the dimer peak, c(s) is 5%. For the same substance, the percent of total protein in the dimer peak, c(s,f/f0) in test [3] amounted to 8%.
Consider “Cul5–Rbx1 subcomplex (from UniProt Q93034 1-780; P62877 1-108)”, for which, in test [4], the percent of total protein in the peak of the 1:1:1:1:1 complex, c(s) was found to be 55%; the percent of total protein in the peak of the 1:1:1:1:1 complex, c(s,f/f0) is 48%; the stoichiometry N turned out to be 1.
“Ozz–EloBC subcomplex (from UniProt Q9BR09 1-285; Q15370 1-118; Q15369 1-112)” came in with a dissociation constant Kd in test [5] of 700 nM. In test [4], the percent of total protein in the dimer peak, c(s) came to 53%; the percent of total protein in the dimer peak, c(s,f/f0) came out at 52%; the stoichiometry N is 2.

(Values after PMC9098882.)
